Experiments:
[1] = biological target: 35S-methionine labeled wild type DIAP1, in vitro translated from diap1-pET14b (UniProt Q24306)
[2] = biological target: His-DIAP1 21-4S mutant (RING domain mutant), in vitro translated from diap1 21-4S pET14b (UniProt Q24306)
His-DIAP1 21-4S mutant (RING domain mutant), in vitro translated from diap1 21-4S pET14b, sequence (Q24306 other isoform, or with tags, fused parts or gaps mutant): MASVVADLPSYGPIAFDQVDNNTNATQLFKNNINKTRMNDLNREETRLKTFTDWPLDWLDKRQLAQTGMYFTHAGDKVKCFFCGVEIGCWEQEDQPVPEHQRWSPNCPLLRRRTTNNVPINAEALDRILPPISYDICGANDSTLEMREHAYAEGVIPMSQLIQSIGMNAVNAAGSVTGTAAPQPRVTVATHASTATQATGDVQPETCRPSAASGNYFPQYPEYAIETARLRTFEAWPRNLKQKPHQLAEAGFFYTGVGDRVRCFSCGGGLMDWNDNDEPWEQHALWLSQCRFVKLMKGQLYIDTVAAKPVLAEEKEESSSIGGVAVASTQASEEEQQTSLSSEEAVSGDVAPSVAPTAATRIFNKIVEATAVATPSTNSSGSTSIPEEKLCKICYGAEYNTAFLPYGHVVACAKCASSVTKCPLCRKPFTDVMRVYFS

35S-methionine labeled wild type DIAP1, in vitro translated from diap1-pET14b, sequence (Q24306 whole entry, the tested form may be a part): as the sequence (Q24306 other isoform, or with tags, fused parts or gaps mutant) above, with Y406C counted along it

For His-UBCD1, the “in vitro ubiquitination reaction” value [1] was “Wild-type DIAP1 (lane 4) showed marked ubiquitination” and the “in vitro ubiquitination reaction” value [2] was “whereas the His-DIAP1^21-4S mutant (RING domain mutant) did not (lane 7), in the presence of ubcD1”.

Reference: patent US20060003939
